# From the supplement of paper PMC11316812
# ± gives the standard deviation of the averaged measurements.
# What was measured:
# hTERT-HMEC = experiment: percentage of EdU-negative (G0-arrested) nuclei per well, 72 h; higher = more G0 arrest; conditions: reference: sequence is the full UniProt precursor, the tested protein was the secreted form or ectodomain
# MCF7 = experiment: as above; conditions: reference: sequence is the full UniProt precursor, the tested protein was the secreted form or ectodomain
# [1] = protein concentration 0.0305714 µM
# [2] = protein concentration 0.305714 µM
# [3] = protein concentration 0.0225 µM
# [4] = protein concentration 0.03125 µM
# [5] = protein concentration 0.3125 µM
# [6] = protein concentration 0.01925 µM
# [7] = protein concentration 0.1925 µM
# 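Also: secreted proteins added to cultured cells, EdU pulse at the end, nuclei found by Hoechst imaging, EdU status from nuclear versus surrounding ring intensity ratio, PBS as neutral control.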
# Sequence of Q8IWL2 (chain, as listed by the source): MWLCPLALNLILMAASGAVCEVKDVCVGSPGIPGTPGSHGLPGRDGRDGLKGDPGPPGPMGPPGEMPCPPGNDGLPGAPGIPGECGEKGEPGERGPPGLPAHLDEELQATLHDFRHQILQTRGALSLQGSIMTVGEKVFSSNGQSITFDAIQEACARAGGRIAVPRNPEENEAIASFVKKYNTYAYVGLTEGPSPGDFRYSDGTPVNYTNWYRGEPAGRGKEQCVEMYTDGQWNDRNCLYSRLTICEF
Substance,percentage of EdU-negative (hTERT-HMEC; [3]) [%],percentage of EdU-negative (hTERT-HMEC; protein concentration 0.225 µM) [%],percentage of EdU-negative (MCF7; [3]) [%],percentage of EdU-negative (MCF7; protein concentration 0.225 µM) [%],percentage of EdU-negative (hTERT-HMEC; [4]) [%],percentage of EdU-negative (hTERT-HMEC; [5]) [%],percentage of EdU-negative (MCF7; [4]) [%],percentage of EdU-negative (MCF7; [5]) [%],further results
MSDSKEPRLQQLGLLEEEQLRGLGFRQTRGYKSLAGCLGHGPLVLQLLSFTLLAGLLVQVSKVPSSISQEQSRQDAIYQNLTQLKAAVGELSEKSKLQEIYQELTQLKAAVGELPEKSKLQEIYQELTRLKAAVGELPEKSKLQEIYQELTWLKAAVGELPEKSKMQEIYQELTRLKAAVGELPEKSKQQEIYQELTRLKAAVGELPEKSKQQEIYQELTRLKAAVGELPEKSKQQEIYQELTQLKAAVERLCHPCPWEWTFFQGNCYFMSNSQRNWHDSITACKEVGAQLVVIKSAEEQNFLQLQSSRSNRFTWMGLSDLNQEGTWQWVDGSPLLPSFKQYWNRGEPNNVGEEDCAEFSGNGWNDDKCNLAKFWICKKSAASCSRDEEQFLSPAPATPNPPPA [Q9NNX6],–,–,–,–,–,–,–,–,percentage of EdU-negative (hTERT-HMEC; [1]): 4.977 ± 0.027%; percentage of EdU-negative (hTERT-HMEC; [2]): 17 ± 4.1%; percentage of EdU-negative (MCF7; [1]): 26.2 ± 1%; percentage of EdU-negative (MCF7; [2]): 26.5 ± 0.49%
MAHRPPSPALASVLLALLLSGAARAAEIVGGHEAQPHSRPYMASLQMRGNPGSHFCGGTLIHPSFVLTAAHCLRDIPQRLVNVVLGAHNVRTQEPTQQHFSVAQVFLNNYDAENKLNDVLLIQLSSPANLSASVATVQLPQQDQPVPHGTQCLAMGWGRVGAHDPPAQVLQELNVTVVTFFCRPHNICTFVPRRKAGICFGDSGGPLICDGIIQGIDSFVIWGCATRLFPDFFTRVALYVDWIRSTLRRVEAKGRP,4.55 ± 0.18,4.49 ± 0.19,25.4 ± 0.57,28.984 ± 0.026,–,–,–,–,–
Q8IWL2,–,–,–,–,5.36 ± 0.08,6.18 ± 0.17,25.4 ± 0.46,26.7 ± 0.54,–
MVMRPLWSLLLWEALLPITVTGAQVLSKVGGSVLLVAARPPGFQVREAIWRSLWPSEELLATFFRGSLETLYHSRFLGRAQLHSNLSLELGPLESGDSGNFSVLMVDTRGQPWTQTLQLKVYDAVPRPVVQVFIAVERDAQPSKTCQVFLSCWAPNISEITYSWRRETTMDFGMEPHSLFTDGQVLSISLGPGDRDVAYSCIVSNPVSWDLATVTPWDSCHHEAAPGKASYKDVLLVVVPVSLLLMLVTLFSAWHWCPCSGKKKKDVHADRVGPETENPLVQDLP [Q9P0V8],7.18 ± 1.4,4 ± 0.28,34.5 ± 7.9,28.8 ± 0.29,–,–,–,–,–
MAKGFYISKSLGILGILLGVAAVCTIIALSVVYSQEKNKNANSSPVASTTPSASATTNPASATTLDQSKAWNRYRLPNTLKPDSYRVTLRPYLTPNDRGLYVFKGSSTVRFTCKEATDVIIIHSKKLNYTLSQGHRVVLRGVGGSQPPDIDKTELVEPTEYLVVHLKGSLVKDSQYEMDSEFEGELADDLAGFYRSEYMEGNVRKVVATTQMQAADARKSFPCFDEPAMKAEFNITLIHPKDLTALSNMLPKGPSTPLPEDPNWNVTEFHTTPKMSTYLLAFIVSEFDYVEKQASNGVLIRIWARPSAIAAGHGDYALNVTGPILNFFAGHYDTPYPLPKSDQIGLPDFNAGAMENWGLVTYRENSLLFDPLSSSSSNKERVVTVIAHELAHQWFGNLVTIEWWNDLWLNEGFASYVEYLGADYAEPTWNLKDLMVLNDVYRVMAVDALASSHPLSTPASEINTPAQISELFDAISYSKGASVLRMLSSFLSEDVFKQGLASYLHTFAYQNTIYLNLWDHLQEAVNNRSIQLPTTVRDIMNRWTLQMGFPVITVDTSTGTLSQEHFLLDPDSNVTRPSEFNYVWIVPITSIRDGRQQQDYWLIDVRAQNDLFSTSGNEWVLLNLNVTGYYRVNYDEENWRKIQTQLQRDHSAIPVINRAQIINDAFNLASAHKVPVTLALNNTLFLIEERQYMPWEAALSSLSYFKLMFDRSEVYGPMKNYLKKQVTPLFIHFRNNTNNWREIPENLMDQYSEVNAISTACSNGVPECEEMVSGLFKQWMENPNNNPIHPNLRSTVYCNAIAQGGEEEWDFAWEQFRNATLVNEADKLRAALACSKELWILNRYLSYTLNPDLIRKQDATSTIISITNNVIGQGLVWDFVQSNWKKLFNDYGGGSFSFSNLIQAVTRRFSTEYELQQLEQFKKDNEETGFGSGTRALEQALEKTKANIKWVKENKEVVLQWFTENSK,–,–,–,–,–,–,–,–,percentage of EdU-negative (hTERT-HMEC; [6]): 5.56 ± 1.4%; percentage of EdU-negative (hTERT-HMEC; [7]): 7.09 ± 0.27%; percentage of EdU-negative (MCF7; [6]): 21.5 ± 1.1%; percentage of EdU-negative (MCF7; [7]): 23.6 ± 1.2%
MELRARGWWLLCAAAALVACARGDPASKSRSCGEVRQIYGAKGFSLSDVPQAEISGEHLRICPQGYTCCTSEMEENLANRSHAELETALRDSSRVLQAMLATQLRSFDDHFQHLLNDSERTLQATFPGAFGELYTQNARAFRDLYSELRLYYRGANLHLEETLAEFWARLLERLFKQLHPQLLLPDDYLDCLGKQAEALRPFGEAPRELRLRATRAFVAARSFVQGLGVASDVVRKVAQVPLGPECSRAVMKLVYCAHCLGVPGARPCPDYCRNVLKGCLANQADLDAEWRNLLDSMVLITDKFWGTSGVESVIGSVHTWLAEAINALQDNRDTLTAKVIQGCGNPKVNPQGPGPEEKRRRGKLAPRERPPSGTLEKLVSEAKAQLRDVQDFWISLPGTLCSEKMALSTASDDRCWNGMARGRYLPEVMGDGLANQINNPEVEVDITKPDMTIRQQIMQLKIMTNRLRSAYNGNDVDFQDASDDGSGSGSGDGCLDDLCSRKVSRKSSSSRTPLTHALPGLSEQEGQKTSAASCPQPPTFLLPLLLFLALTVARPRWR,–,–,–,–,4.85 ± 0.34,28.7 ± 1.6,27.5 ± 0.42,28.9 ± 2.8,–
